± gives the uncertainty stated by the source.
Assay: amyloid nucleation score (Sup35N fusion, yeast selection) (log enrichment); library NNK1; higher = more nucleation; inactive = no reads after selection
Procedure, shortened: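 The nucleation score is a DiMSum log enrichment of output over input reads, centred on the mode score of non-aggregating sequences. Sequences under 100 input reads were excluded, and reads came from Illumina sequencing of plasmid inserts. Psi-negative yeast expressing Sup35N fused to peptides of 20 random codons were induced with 100 μM copper sulfate for 24 hours and grown 7 days at 30°C on medium lacking adenine and uracil. Random libraries had three technical output replicates.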

Row | Substance | amyloid nucleation score
1 | SYIALIELFLFDSRRGHESV | 0.078 ± 0.35
2 | KAEVRVRARELAEGMGARGR | 0.693 ± 0.72
3 | VVSRWLRVFNFFEAKDFILV | -1.74 ± 2.7
4 | STWFSFTFLWLMSRGVNQNF | 1.56 ± 0.36
5 | VRADHYFYITHIKLKMSRV | inactive
6 | AHGRHDLRWCLRSRDSMWRA | 1.2 ± 0.53
7 | SDYTLEGLIVFPCCVLLHVR | 0.381 ± 0.39
8 | GPCGTLSI | -0.541 ± 0.84
9 | ICYKGREHKPRIVNIGSDVR | inactive
10 | YIRGYTIFSNWCFGLASGSA | -0.525 ± 0.83
11 | LDVYCH | inactive
12 | ICLITVSMYKSRWIFSKKLT | -0.073 ± 0.54
13 | ITYSLSIYSSRAICLYVWGG | -0.119 ± 0.62
14 | DVGMLV | -0.107 ± 0.31
15 | CDSYSKMPPGRNILVCQFCW | 2.15 ± 0.11
16 | MSKIGLLRLDDYHRMGFCKQ | -0.469 ± 0.38
17 | FSDCCLSAKRA | -0.46 ± 0.73
18 | QYFKPGVASPSGDPVFKKKV | -0.404 ± 0.43
19 | AFHLTSSSLFLFSWNSWVAV | 5.3 ± 0.082
20 | FMSNIDLFTGFLRDMWFIIF | -0.312 ± 0.55
21 | SSSYDY | -0.545 ± 0.28
22 | LRCLYIG | -0.818 ± 0.86
23 | LYAVLDILVMFMLMSPP | 0.253 ± 0.36
24 | NSFRTGVLYSMESEGMAWWC | -0.044 ± 0.76
25 | VHRRRIRQSAWVRGAVSTFR | -0.011 ± 0.4
26 | GGYVIF | 0.212 ± 0.56

Row | Substance | amyloid nucleation score
27 | LPTVDMIWIRGFGFQELSWC | inactive
28 | TISCSSYDMWWCFTEAKSTM | inactive
29 | ASGKYNRLCIGFVWGCEQGM | 2.12 ± 0.26
30 | DLQCVAKVHESVGLGHHVHE | 0.659 ± 0.5
31 | WPTLIINDAFILRRRNMDSE | -0.223 ± 0.32
32 | LVIPVDRDANGLCYR | 0.46 ± 0.6
33 | PLGGLGYV | 0.543 ± 0.73
34 | MLIRWNSYTGHIGWIFSGKA | 0.94 ± 0.19
35 | MVDTYRYVIISVYVMLPYYN | 1.14 ± 0.97
36 | FISNIFKMKMATQSGGLGVR | -0.789 ± 0.71
37 | RHIYVSVNERLYVEFNYIAG | 2.19 ± 0.34
38 | PYSQFANLSIYVMDMMRGIR | 5.562 ± 0.048
39 | LNLHS | -0.384 ± 1.2
40 | FQGLSFKHGAIGSAYSQSFD | inactive
41 | NNFGFET | 0.671 ± 0.31
42 | MSLFNISSHSWLKFTLCVPG | 1.17 ± 0.66
43 | PLVGWSRYSGAIPTSVMFLA | 4.21 ± 0.071
44 | LLSYFLRNPYMSNGTTGLHG | 0.144 ± 0.79
45 | LFEGEIIMK | inactive
46 | MAPEFCIEDKIRVVPFLIPI | 0.197 ± 0.89
47 | NICWFGVSRLQKMEGLWTGA | 0.515 ± 0.67
48 | IRKGSFPD | -0.841 ± 0.82
49 | HPYSFWWSWAVKPLPGLRRI | 0.485 ± 0.73
50 | YASLNYLLQGRVRA | inactive
51 | GTNYYSSGML | 0.114 ± 0.35
52 | TGFVWWLFGCGWTLVDRMWF | -0.79 ± 0.69

Row | Substance | amyloid nucleation score
53 | FYGCNSRA | -0.037 ± 0.97
54 | LRAIRE | 0.33 ± 0.63
55 | IMMHSGPRKVPGSFGQTVHD | 0.019 ± 0.68
56 | DVNNIHLRKLTDCHI | 1.61 ± 0.36
57 | RGGRWLMATWMMPGNGCLAA | 0.708 ± 0.52
58 | FTDTICCIVMQFKPKRSGSS | 4.87 ± 0.088
59 | EEPLLSDMCITVGVRFLNKS | 3.36 ± 0.22
60 | LMTRSVIVIRLMEEKSAA | 0.163 ± 1.4
61 | QVNDIGP | -0.341 ± 0.22
62 | TFSDSLKNLQVMVHYSWVVG | 0.224 ± 1.4
63 | NHIQRVSTFVLAMSYYVRTV | -0.236 ± 1.2
64 | RWSPV | 1.47 ± 0.54
65 | WCFVTHLLLCFLLDDKNFTW | inactive
66 | TFRCKSCDLLYHRLENWSDW | 2.66 ± 0.12
67 | FAGLSHWKPLDGTMGVGDRV | -0.526 ± 0.41
68 | HITDYRVRT | 1.27 ± 0.41
69 | HYKDSITVFFIFHIPIQMMM | 4.25 ± 0.057
70 | GTGLSENRLSKYCWALLWSY | inactive
71 | RSFLMPDE | 0.307 ± 0.46
72 | LKSPTWPMSHSDRLTHRLLC | 0.004 ± 0.69
73 | SPSKLGSE | 0.903 ± 0.56
74 | WLVTDFVCHLITNTIYTLLL | inactive
75 | LYAHYRADVHEEKSLYYVIA | 0.101 ± 0.23
76 | TNIFMSFKFLISSLRCFPER | 4.68 ± 0.12
77 | EGYYEPVIVI | 0.66 ± 0.47
78 | RSCGMTVGACSYVACVSYCT | 6.02 ± 0.066

Row | Substance | amyloid nucleation score
79 | PCLNRLVV | 0.386 ± 0.5
80 | VFAFA | 0.126 ± 0.48
81 | LVHKLFDIRRCPTAFSNWTM | 1.29 ± 0.47
82 | CISLTCVVYGSML | 7.213 ± 0.048
83 | SELYLFSSRGIYQSTRLRLR | -0.147 ± 0.81
84 | VKTPTDRSYRLHGNFIGCWA | -0.576 ± 0.38
85 | NYVPIWSGA | inactive
86 | DSIMNGR | 0.713 ± 0.74
87 | PYRFSYKVVESSICDNLRRR | -0.094 ± 0.35
88 | ACNCHMWV | 1.31 ± 0.59
89 | SPGAWKHSNPDGDCNGLA | 0.525 ± 0.49
90 | SSVLATFIKLQHQGRKRKDR | -0.198 ± 0.29
91 | AKCGICLFYGM | -0.358 ± 0.36
92 | NCMAISGITVLNMSWNNLKI | 6.612 ± 0.064
93 | YYYHVVWAQ | inactive
94 | VGLTARHKCWVGTCRGGPRT | -0.711 ± 1.3
95 | RWSILTIVSMGP | 0.196 ± 1.2
96 | ASFGGINLPL | -0.236 ± 0.41
97 | GHHVRLLFLCVHTISYMESR | 0.582 ± 0.9
98 | THSIFFVQLRFPFMLTTS | -0.269 ± 0.78
99 | GLECD | 0.469 ± 0.43
100 | IIGTPVPYLGVLKTFDIKYF | 0.125 ± 0.36
101 | MPCFGVQKIYQLDETMPSET | 0.141 ± 0.45
102 | ILIEETFLS | inactive
103 | LLRNGFHSVLI | 0.488 ± 0.25
104 | LNLTMVGIYINDFL | 4.69 ± 0.099

Row | Substance | amyloid nucleation score
105 | AVIVVV | 0.175 ± 0.39
106 | DVVICRYSAVIRVFLTLKFK | -0.202 ± 0.49
107 | NVRSFWFSGNQSNIGGICWG | 0.204 ± 0.43
108 | RSHGNGSGSRTVAF | -0.1 ± 0.49
109 | DDSGRL | 0.494 ± 0.59
110 | DKLDSLIRVLNRLDNL | -0.316 ± 0.4
111 | FVGRCLNMKTCRRCLLSWDN | 0.128 ± 1.6
112 | CQSKYYIMRACCFMATLWYW | -0.475 ± 0.47
113 | NLCSFFMFTIILGGNVGTFM | 7.208 ± 0.044
114 | SAVVAVPVPYRDHQCPLPRV | 1.13 ± 0.52
115 | RSSGVSVGYFRAFS | inactive
116 | FSHLFHQY | 2.13 ± 0.57
117 | ASTYMYGFSYIYMLVNRCEC | 1.59 ± 0.14
118 | FNMENVGKSQSRAAVRVRH | 0.961 ± 0.42
119 | ITVYLMALVNNVCG | 3.38 ± 0.13
120 | MWSLDGTKICNLRKVFGRSC | 0.809 ± 0.37
121 | IAYVQFAPRKY | 0.776 ± 0.36
122 | NMDGLAPISGSFYSRSGNFI | 0.964 ± 0.61
123 | CCIMSRIGTCLWVEWRWCRG | 0.243 ± 0.39
124 | YWCRSSLFRFMGLRYESRMY | 0.359 ± 0.51
125 | NHFGAYVVYGFIEHKKTGMW | 1.82 ± 0.19
126 | RYICVTFISLGELPFYWWFT | -1.55 ± 0.83
127 | PWTYQHGQLASWVLGES | -0.242 ± 0.33
128 | LRVAFIKLKHKKFNDMYRSM | 0.156 ± 0.26
